According to patent US20250042956A1:

Tests used:
[1] = biological target: T1, AT5G67580.1 TRB2 (Arabidopsis thaliana) (UniProt Q9FJW5); assay: IP-MS rep 2
T1 sequence: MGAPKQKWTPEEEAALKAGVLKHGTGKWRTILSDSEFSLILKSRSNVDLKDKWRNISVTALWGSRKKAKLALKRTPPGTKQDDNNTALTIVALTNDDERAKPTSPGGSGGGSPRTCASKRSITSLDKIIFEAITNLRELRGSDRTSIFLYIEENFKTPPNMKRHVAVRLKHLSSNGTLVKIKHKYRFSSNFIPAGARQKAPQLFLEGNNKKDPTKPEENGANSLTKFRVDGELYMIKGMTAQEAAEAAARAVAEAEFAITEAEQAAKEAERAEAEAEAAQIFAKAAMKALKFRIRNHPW

[2] = biological target: T1, AT5G67580.1 TRB2 (Arabidopsis thaliana); assay: IP-MS rep 1
[3] = biological target: T1, AT5G67580.1 TRB2 (Arabidopsis thaliana); assay: X-link IP-MS
[4] = biological target: T2, AT3G49850.1 TRB3 (Arabidopsis thaliana) (UniProt Q9M2X3); assay: IP-MS rep 2
T2 sequence: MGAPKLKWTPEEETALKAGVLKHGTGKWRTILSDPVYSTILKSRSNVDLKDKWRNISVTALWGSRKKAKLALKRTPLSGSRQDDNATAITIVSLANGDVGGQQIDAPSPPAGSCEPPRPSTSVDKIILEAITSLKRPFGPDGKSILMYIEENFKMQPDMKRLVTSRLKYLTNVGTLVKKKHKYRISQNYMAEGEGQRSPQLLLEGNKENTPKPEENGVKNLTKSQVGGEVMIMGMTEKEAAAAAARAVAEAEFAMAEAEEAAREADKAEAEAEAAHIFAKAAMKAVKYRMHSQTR

[5] = biological target: T2, AT3G49850.1 TRB3 (Arabidopsis thaliana); assay: IP-MS rep 1
[6] = biological target: T2, AT3G49850.1 TRB3 (Arabidopsis thaliana); assay: X-link IP-MS
[7] = biological target: T3, AT5G17690.1 LHP1 (Arabidopsis thaliana) (UniProt Q946J8); assay: IP-MS rep 2
T3 sequence: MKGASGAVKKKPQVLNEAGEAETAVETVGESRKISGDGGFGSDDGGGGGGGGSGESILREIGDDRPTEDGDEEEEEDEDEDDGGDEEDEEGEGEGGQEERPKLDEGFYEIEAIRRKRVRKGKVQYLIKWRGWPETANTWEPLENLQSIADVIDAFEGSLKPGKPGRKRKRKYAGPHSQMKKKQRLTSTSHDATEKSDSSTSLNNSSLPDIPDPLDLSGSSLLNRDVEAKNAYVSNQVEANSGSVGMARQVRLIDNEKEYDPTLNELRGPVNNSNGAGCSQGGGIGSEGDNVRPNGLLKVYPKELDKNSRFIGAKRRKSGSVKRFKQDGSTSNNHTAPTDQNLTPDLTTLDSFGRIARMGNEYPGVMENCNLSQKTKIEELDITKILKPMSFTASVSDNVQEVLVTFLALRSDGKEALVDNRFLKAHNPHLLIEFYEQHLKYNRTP

[8] = biological target: T3, AT5G17690.1 LHP1 (Arabidopsis thaliana); assay: IP-MS rep 1
[9] = biological target: AT4G20400.1 JMJ14 (Arabidopsis thaliana), Q8GUI6; assay: IP-MS rep 1; conditions: remark: other sources report otherwise
[10] = biological target: T4, AT5G17690.1 LHP1 (Arabidopsis thaliana), Q946J8; assay: IP-MS rep 1; conditions: remark: other sources report otherwise
T4 chain: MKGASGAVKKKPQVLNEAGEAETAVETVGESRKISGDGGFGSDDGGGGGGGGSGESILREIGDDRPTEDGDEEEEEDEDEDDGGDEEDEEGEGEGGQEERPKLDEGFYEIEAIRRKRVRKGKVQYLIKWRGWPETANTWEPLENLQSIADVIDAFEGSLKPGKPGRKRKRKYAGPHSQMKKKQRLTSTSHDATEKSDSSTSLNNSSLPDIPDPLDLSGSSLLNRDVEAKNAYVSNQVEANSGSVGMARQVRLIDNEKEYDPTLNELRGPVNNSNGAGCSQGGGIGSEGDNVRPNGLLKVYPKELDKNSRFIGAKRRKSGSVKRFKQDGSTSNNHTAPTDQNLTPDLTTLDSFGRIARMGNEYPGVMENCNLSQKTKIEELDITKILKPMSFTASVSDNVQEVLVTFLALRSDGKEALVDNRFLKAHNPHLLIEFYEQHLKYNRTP

[11] = biological target: AT4G20400.1 JMJ14 (Arabidopsis thaliana), Q8GUI6; assay: X-link IP-MS; conditions: remark: other sources report otherwise
[12] = biological target: T4, AT5G17690.1 LHP1 (Arabidopsis …); assay: X-link IP-MS; conditions: remark: other sources report otherwise
[13] = biological target: AT4G20400.1 JMJ14 (Arabidopsis thaliana), Q8GUI6; assay: IP-MS rep 2; conditions: remark: other sources report otherwise
[14] = biological target: T4, AT5G17690.1 LHP1 (Arabidopsis …); assay: IP-MS rep 2; conditions: remark: other sources report otherwise
[15] = biological target: T5, AT4G02020.1 SWN (Arabidopsis thaliana) (UniProt Q9ZSM8); assay: IP-MS rep 2
T5 sequence (looked up): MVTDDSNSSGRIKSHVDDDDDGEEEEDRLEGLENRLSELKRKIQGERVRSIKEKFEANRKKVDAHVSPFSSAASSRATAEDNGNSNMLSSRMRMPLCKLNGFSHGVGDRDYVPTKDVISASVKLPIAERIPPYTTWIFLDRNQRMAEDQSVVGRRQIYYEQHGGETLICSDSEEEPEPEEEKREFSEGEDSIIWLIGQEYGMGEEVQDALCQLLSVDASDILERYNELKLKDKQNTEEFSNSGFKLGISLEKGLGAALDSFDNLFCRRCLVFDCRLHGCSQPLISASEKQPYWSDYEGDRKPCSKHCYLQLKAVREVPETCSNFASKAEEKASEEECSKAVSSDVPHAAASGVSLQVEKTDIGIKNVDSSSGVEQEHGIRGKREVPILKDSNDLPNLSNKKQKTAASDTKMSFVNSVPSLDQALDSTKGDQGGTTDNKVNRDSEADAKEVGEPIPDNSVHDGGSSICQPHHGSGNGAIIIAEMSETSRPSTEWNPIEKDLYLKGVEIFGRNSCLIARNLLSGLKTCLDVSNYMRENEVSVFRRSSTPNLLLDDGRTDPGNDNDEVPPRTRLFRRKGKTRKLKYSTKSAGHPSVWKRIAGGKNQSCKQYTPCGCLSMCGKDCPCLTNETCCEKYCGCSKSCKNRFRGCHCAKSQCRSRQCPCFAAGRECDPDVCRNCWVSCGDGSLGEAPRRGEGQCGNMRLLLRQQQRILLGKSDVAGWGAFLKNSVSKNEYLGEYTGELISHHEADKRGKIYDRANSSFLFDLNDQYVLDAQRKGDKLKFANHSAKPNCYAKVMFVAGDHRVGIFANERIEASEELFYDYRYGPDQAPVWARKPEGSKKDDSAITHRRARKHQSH

[16] = biological target: T5, AT4G02020.1 SWN (Arabidopsis thaliana); assay: IP-MS rep 1
[17] = biological target: T5, AT4G02020.1 SWN (Arabidopsis thaliana); assay: X-link IP-MS

AT4G20400.1 JMJ14 (Arabidopsis thaliana), Q8GUI6, sequence (Q8GUI6 whole entry): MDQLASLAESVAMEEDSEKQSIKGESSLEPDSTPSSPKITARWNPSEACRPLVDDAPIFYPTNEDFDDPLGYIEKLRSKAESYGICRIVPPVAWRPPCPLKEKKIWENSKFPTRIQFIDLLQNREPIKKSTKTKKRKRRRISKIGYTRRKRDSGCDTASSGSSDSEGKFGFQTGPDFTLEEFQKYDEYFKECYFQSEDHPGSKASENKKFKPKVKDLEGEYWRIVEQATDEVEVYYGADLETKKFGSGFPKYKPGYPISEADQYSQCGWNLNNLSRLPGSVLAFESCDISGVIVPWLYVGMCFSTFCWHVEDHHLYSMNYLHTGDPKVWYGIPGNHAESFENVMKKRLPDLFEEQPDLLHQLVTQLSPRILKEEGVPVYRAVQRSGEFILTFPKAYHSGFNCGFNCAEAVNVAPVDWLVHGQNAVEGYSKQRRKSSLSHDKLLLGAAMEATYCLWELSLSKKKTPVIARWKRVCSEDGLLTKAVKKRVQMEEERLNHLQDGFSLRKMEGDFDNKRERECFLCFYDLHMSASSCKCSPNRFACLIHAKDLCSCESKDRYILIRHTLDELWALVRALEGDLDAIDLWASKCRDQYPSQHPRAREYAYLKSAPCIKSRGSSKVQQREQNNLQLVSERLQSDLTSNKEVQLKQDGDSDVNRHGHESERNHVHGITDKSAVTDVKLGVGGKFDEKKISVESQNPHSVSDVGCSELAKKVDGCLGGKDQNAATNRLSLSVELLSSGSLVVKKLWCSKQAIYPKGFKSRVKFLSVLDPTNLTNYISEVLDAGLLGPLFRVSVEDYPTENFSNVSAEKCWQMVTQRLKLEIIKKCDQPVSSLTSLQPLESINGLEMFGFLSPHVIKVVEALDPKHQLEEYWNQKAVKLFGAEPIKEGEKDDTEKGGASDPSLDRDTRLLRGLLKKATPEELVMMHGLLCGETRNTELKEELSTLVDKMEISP

B1: FLAG-TRB3 (protein, not shown: small tags and cut ends)
chain: MGAPKLKWTPEEETALKAGVLKHGTGKWRTILSDPVYSTILKSRSNVDLKDKWRNISVTALWGSRKKAKLALKRTPLSGSRQDDNATAITIVSLANGDVGGQQIDAPSPPAGSCEPPRPSTSVDKIILEAITSLKRPFGPDGKSILMYIEENFKMQPDMKRLVTSRLKYLTNVGTLVKKKHKYRISQNYMAEGEGQRSPQLLLEGNKENTPKPEENGVKNLTKSQVGGEVMIMGMTEKEAAAAAARAVAEAEFAMAEAEEAAREADKAEAEAEAAHIFAKAAMKAVKYRMHSQTR
IP-MS count [1]: 11 | IP-MS count [2]: 12 | IP-MS count [3]: 11

B2: FLAG-TRB2 (protein, not shown: small tags and cut ends)
chain: MGAPKQKWTPEEEAALKAGVLKHGTGKWRTILSDSEFSLILKSRSNVDLKDKWRNISVTALWGSRKKAKLALKRTPPGTKQDDNNTALTIVALTNDDERAKPTSPGGSGGGSPRTCASKRSITSLDKIIFEAITNLRELRGSDRTSIFLYIEENFKTPPNMKRHVAVRLKHLSSNGTLVKIKHKYRFSSNFIPAGARQKAPQLFLEGNNKKDPTKPEENGANSLTKFRVDGELYMIKGMTAQEAAEAAARAVAEAEFAITEAEQAAKEAERAEAEAEAAQIFAKAAMKALKFRIRNHPW
IP-MS count [4]: 0 | IP-MS count [5]: 0 | IP-MS count [6]: 4

B3: TRBIP2 (bait of the TRBIP2 IP-MS) (protein, not shown: small tags and cut ends)
chain: MATNACLESDSLLPPRKRLLAGFKNQNSRISNESPSPPFASSSSSTTTSNGSSASAVVHTHHLDHLLNDQTRSPEELAQASKATAALAVKVAKAARATANEKAIIASKAVAAAKNALELFASFPAAETVSCKEPRLIRAINNSPRVLTDCSGHRNKKQKTLTSTMNDGNDVAGVVDSDDGTRVNGKLLLCDNTLKEKTEEESSSLGKRRGRVKLPLSMCAYKDQENGITLEENNLSVSKSEGYNGGVAQVIERPSWKCQDLKSPECVKQNKVVRS
IP-MS count [7]: 1 | IP-MS count [8]: 2

B4: FLAG-TRB1, Q8VWK4 1-300 (protein, not shown: small tags and cut ends)
chain: MGAPKQKWTQEEESALKSGVIKHGPGKWRTILKDPEFSGVLYLRSNVDLKDKWRNMSVMANGWGSREKSRLAVKRTFSLPKQEENSLALTNSLQSDEENVDATSGLQVSSNPPPRRPNVRLDSLIMEAIATLKEPGGCNKTTIGAYIEDQYHAPPDFKRLLSTKLKYLTSCGKLVKVKRKYRIPNSTPLSSHRRKGLGVFGGKQRTSSLPSPKTDIDEVNFQTRSQIDTEIARMKSMNVHEAAAVAAQAVAEAEAAMAEAEEAAKEAEAAEAEAEAAQAFAEEASKTLKGRNICKMMIRA
IP-MS count [9]: 34 | IP-MS count [10]: 0 | IP-MS count [11]: 77 | IP-MS count [12]: 0 | IP-MS count [13]: 35 | IP-MS count [14]: 1

B5: FLAG-TRB3, Q9M2X3 1-295 (protein, not shown: small tags and cut ends)
chain: MGAPKLKWTPEEETALKAGVLKHGTGKWRTILSDPVYSTILKSRSNVDLKDKWRNISVTALWGSRKKAKLALKRTPLSGSRQDDNATAITIVSLANGDVGGQQIDAPSPPAGSCEPPRPSTSVDKIILEAITSLKRPFGPDGKSILMYIEENFKMQPDMKRLVTSRLKYLTNVGTLVKKKHKYRISQNYMAEGEGQRSPQLLLEGNKENTPKPEENGVKNLTKSQVGGEVMIMGMTEKEAAAAAARAVAEAEFAMAEAEEAAREADKAEAEAEAAHIFAKAAMKAVKYRMHSQTR
IP-MS count [9]: 13 | IP-MS count [11]: 72 | IP-MS count [13]: 12

B6: FLAG-TRB1 (protein, not shown: small tags and cut ends)
chain: MGAPKQKWTQEEESALKSGVIKHGPGKWRTILKDPEFSGVLYLRSNVDLKDKWRNMSVMANGWGSREKSRLAVKRTFSLPKQEENSLALTNSLQSDEENVDATSGLQVSSNPPPRRPNVRLDSLIMEAIATLKEPGGCNKTTIGAYIEDQYHAPPDFKRLLSTKLKYLTSCGKLVKVKRKYRIPNSTPLSSHRRKGLGVFGGKQRTSSLPSPKTDIDEVNFQTRSQIDTEIARMKSMNVHEAAAVAAQAVAEAEAAMAEAEEAAKEAEAAEAEAEAAQAFAEEASKTLKGRNICKMMIRA
IP-MS count [15]: 0 | IP-MS count [16]: 1 | IP-MS count [17]: 2
